Assay: soluble on expression in E. coli; label from the status in PepcDB or PDB records

Q: With “MQSASDGFSKMIKTLLYITPDPCPECGGNLYAWRAKNKDGSDRCPPTCMECGYKARKKAEDLETEKMFNDSLKARAINYLKYSSLYTDKNLINCRFKTYKTVDTETKLAFEIANRATTEILLNKPIHMILSGKSGVGKSHLAMSTAWEVLEKSNYDKRCLFISYAELLEQLKFAMNDEQARKEITGSLMAEIKSADLVVLDDLGAELGVKQIDDRNKSTNFNNDTLNRIVEARQNKATIFTTNLTGKEMSQAYGERILSRIMSNSQGFVMKIEGTSDKRVAGILEHHHHHH” as the sequence, how does the “soluble on expression in E. coli” value read?
A: soluble

Q: Which “soluble on expression in E. coli” value does the source give for “MSLKFIEKMLPEESPIDLLINLSRRGEAAVVLLKDAIEDYFTGKFGEGHLNRVISLERESDEIKSKLKKMYLKMKYTYFEKDDFLYIVHKADEILDVVRDIVIMLDMNRVEDVPENIKELFAELVENVLDTIRETTEAIEQLRTLAESGFSPFEKEKEEREIFDVSMEEREVDTISRNLGKKLYSLKNSMNPVDLIFLNKVARLISKIADQGKDITKRINSILREGHHHHHH” here?
A: soluble

Q: For “MKLKSLDFPTGYFYFDNAAINSDKVEVIAVGYRNTDKTIKIFIEDVIHFRVVDESYFIDTFMDLISEDADRALLHENGGQSFFELLDECYAEWILKESYFPLNREFFKYYIFMFEQTFIEIIGSSATYSIIEG”, which “soluble on expression in E. coli” value is on record?
A: not soluble

Q: Which “soluble on expression in E. coli” value does the source give for “MDLFPVLKELAQKTPSKILLIVLDGVGGLPLEPGGPTELEAAKTPNLDRLAEESALGLLTPVYPGLAPGSGPGHLALFGYDPFRYVVGRGALSALGLGADFREGDVALRGNFATLDPEGKVVDRRAGRPPTEENQRVVAKLKEAIPRIEDVEVHFYTESEHRFLVVLRGEGLGDAVTDTDPQKTGLPPLKAKALDEASERTARLVNLLSERIREVLKDEPRMNGALFRGASKKPSFPRMQEVYKLTPAAIASYPMYKGLASLVGMEVLPVEGEGDALEGKLKALKENWGRYDFFYFHVKKTDAMGEDGNFHGKVEKVELFDALLPEILALGPDVLAITGDHSTPALLKAHSWHPVPLLLKAPYLRADEARRFTEREAQRGSLGHLRGMELMPLLLAHAGKLLKYGALEHHHHHH” here?
A: not soluble

Q: With “MGSDKIHHHHHHMQAFDELLTVEQLSFSYEEDEKPVFQDISFELQKGECVLLLGPSGCGKSSLALCLNGLYPEACDGIQSGHVFLFQKPVTDAETSETITQHAGVVFQDPDQQFCMLTVEDEIAFGLENLQIPKEEMTEKINAVLGKLRITHLKEKMISTLSGGQKQKVALACILAMEPELIILDEPTSLLDPFSAREFVHLMKDLQREKGFSLLVIEHQLDEWAPWIERTIVLDKSGKKALDGLTKNLFQHEAETLKKLGIAIPKVCHLQEKLSMPFTLSKEMLFKEPIPAGHVKKKKAPSGESVLEVSSLSFARGQQAIFKDISFSLREGSLTALVGPNGTGKSTLLSVLASLMKPQSGKILLYDQPLQKYKEKELRKRMGFVFQNPEHQFVTDTVYDELLFGQKANAETEKKAQHLLQRFGLAHLADHHPFAISQGQKRRLSVATMLMHDVKVLLLDEPTFGQDARTAAECMEMIQRIKAEGTAVLMITQGYGASLFVC” as the sequence, how does the “soluble on expression in E. coli” value read?
A: not soluble

Q: With “MGSDKIHHHHHHVEYPLPAKNSNLVGENQYYVVPEGKLTLEAIATKFQLGLTNLLEANPGVDPFLPKPGSTLVIPHQLILPNAPREGIVINVAEMRLYYYPKGKNIVEVLPIGIGQIGKDTPEKWVTTVQRKRANPTWTPTPRIRKEYLAKGEVLPAVWPAGPDNPMGLFALYIGNLYAIHGTNATFGIGLRISQGCIRLRDADIEHLFNSVPEGTRVEFTNQPIKASEEPDGNRYLEVHQPLSRTMAEYESAEPVGLSMHRDIAKFVAHADTDSFVLKRLLEQRNGIPTRINQ” as the sequence, how does the “soluble on expression in E. coli” value read?
A: not soluble

Q: Which “soluble on expression in E. coli” value does the source give for “MKTHKTKNDLPSNAKSTVIGILNESLASVIDLALVTKQAHWNLKGPQFIAVHELLDTFRTQLDNHGDTIAERVVQLGGTALGSLQAVSSTTKLKAYPTDIYKIHDHLDALIERYGEVANMIRKAIDDSDEAGDPTTADIFTAASRDLDKSLWFLEAHVQEKS” here?
A: soluble

Q: For “MSLSLDQESIEHDLKLTSEEIFHSNGKYIPPMLNTLGQHLSVRKEFFQNFLTFVAKNFNYKISPELKLDLIEKFEILNCCIKFNSIIRQSDVLNDIWEKTLSNYNLTQNEHLTTKTVVINSPDVFPVIFKQFLNHVVFVLFPSQNQNFKLNVTNLINLCFYDGILEEGEKTIRYELLELDPMEVDTSKLPWFINFDYLNCINQCFFDFTFACEEEGSLDSYKEGLLKIVKILYYQFNQFKIWINTQPVKSVNANDNFININNLYDDNHLDWNHVLCKVNLKEQCIQIAEFYKDLSGLVQTLQTLDEGHHHHHH”, which “soluble on expression in E. coli” value is on record?
A: not soluble

Q: Which “soluble on expression in E. coli” value does the source give for “MKNEVKFMSEVIKVVDVKIFPHRYLKAETTEKVLNEIYDLDGIVRVIVHGQPLPKTVPFGPARGLPVNHQDRKVIKVKGEEMELRVKVGEIIITVEGEKLEKIMDGIEEICKRNFPFGYDIYVGAFTKIKPTVTDYMKYGDISSIDPRLIGMVDASARLKDSVKMIKLEHHHHHH” here?
A: soluble

Q: With “QDPDGLLGDKKDVGITCALIPADHDGVEIGERHDPLGSAFMNGPTRGEDVFIPMDWLIGGSDYAGKGWRMLVECLSAGRGISLPALGTAIGHLTTRTTGAYAYVRKQFGMSIGKFEGVAEAMGRIGGLTYLLEATRTLTTTSLDMKEKPGIVTAIAKYHMTEIARTILNDSFDIHAGRAIQDGPMNYLAKHYLGIPVAITVEGANILTRNLMIFGQGATRCHPYVLKEMEAAANPDSEQGAKEFDSLLFKH” as the sequence, how does the “soluble on expression in E. coli” value read?
A: not soluble

Q: Which “soluble on expression in E. coli” value does the source give for “MLFDLDGTVWEGGRALPFAVDSINQVNLPLMYVTNNASRGPEVVASLLSDMGIFTQPEQVLTSAQAAIDLALKEVPVGSNVLVLGTDSFKSLAAEAGYMVVNSADMEPVAVFHGHNPATSWTELSEAALAIRCGAKYYASNLDTTLPSERGLCVGNGSMVAAVVSATGVQPVSAGKPEAAMFHVAAEKLASERPLAVGDRLNTDIAGGVAAGFDTLHLLTGVSQHWALVHAIESERPTLIAEDLRALSSDRSVLMPQLQGDFNAYLQGTEIVLNGGSTASTSTEALRSVLSVAWQSAEFGGTVKPVSEHAIRCMSEWR” here?
A: not soluble

Q: Which “soluble on expression in E. coli” value does the source give for “MALSILFLSIASLTLSSSLIIDHYFHLSFLRNPLKSQSGGGKMKPKVFITREIPEVGIKMLEDEFEVEVWGDEKEIPREILLKKVKEVDALVTMLSERIDKEVFENAPKLRIVANYAVGYDNIDIEEATKRGIYVTNTPDVLTDATADLAFALLLATARHVVKGDRFVRSGEWKKRGVAWHPKWFLGYDVYGKTIGIIGLGRIGQAIAKRAKGFNMRILYYSRTRKEEVERELNAEFKPLEDLLRESDFVVLAVPLTRETYHLINEERLKLMKKTAILINIARGKVVDTNALVKALKEGWIAGAGLDVFEEEPYYNEELFKLDNVVLTPHIGSASFGAREGMAELVAKNLIAFKRGEIPPTLVNREVIKIRKPGFE” here?
A: soluble

Q: Which “soluble on expression in E. coli” value does the source give for “MSLRAVIRVAFILMDNFSLMSFTAAMDALVTANLMGDAPIFDIVKIGLKGRVAMSDLGIAIPTDLDLSELRARHDLLLVVGGLRVDLKSTPCLRRKLFAAASAGTSLGGLWNGAYFLADARVMGGHTCAVHPDGRAMMADAFPDLRISDRSHVVDLERVTCAGASSSLRMMLEYIRVTKGSSLARAVEEILGCDEHEGHHHHHH” here?
A: soluble

Q: With “MGSDKIHHHHHHMVKVLILGQGYVASTFVAGLEKLRKGEIEPYGVPLARELPIGFEDIKIVGSYDVDRAKIGKKLSEVVKQYWNDVDSLTSDPEIRKGVHLGSVRNLPIEAEGLEDSMTLKEAVDTLVKEWTELDPDVIVNTCTTEAFVPFGNKEDLLKAIENNDKERLTATQVYAYAAALYANKRGGAAFVNVIPTFIANDPAFVELAKENNLVVFGDDGATGATPFTADVLSHLAQRNRYVKDVAQFNIGGNMDFLALTDDGKNKSKEFTKSSIVKDILGYDAPHYIKPTGYLEPLGDKKFIAIHIEYVSFNGATDELMINGRINDSPALGGLLVDLVRLGKIALDRKEFGTVYPVNAFYMKNPGPAEEKNIPRIIAYEKMRIWAGLKPKWL” as the sequence, how does the “soluble on expression in E. coli” value read?
A: soluble

Q: Which “soluble on expression in E. coli” value does the source give for “MTIDLNAMLAKRAEVLGEGNKFDVKLGNKTFYFVAPELASSEWNDRHQAFLEDIRDGLMTSATAREEFLGLALEDQAEEFAEAADNIGVDPFIIAQMAFQEHAEYVGKTQSQKSLNRTQRRAKQR” here?
A: not soluble

Q: For “MSPRSPRHDKILQLVRENGFMPIEELARLLDVTPQTIRRDINQLCEANLLRRYHGGAALGNSVENEDYFARKGKFQSEKAHIADMIARSIPDHASLFMSIGTTIEAVAQALTATHKGLRVITNNIHVASIMSTNPDFTAMITSGTVRASDGGITGVATLDFINQFKVDYAIIGVSGIEPDGSLLDFDYREVRVAQAMMNNARHRYLAADHSKFGRNALVRMGHISEFHTVFTDAAPPEPVTKLLEEHNVRLVLSEALEHHHHHH”, which “soluble on expression in E. coli” value is on record?
A: soluble

Q: Which “soluble on expression in E. coli” value does the source give for “FTLRLNSTEMPMSDLIEVELLTGKQLLLVEPNMQAASVTQQILSQEGILVTYRSSLPENEEHYDYVLLNLAANQTYDEQSVAAWIEQAKRMAPSVIMGTPSTELALADQIMTEHQIQCLTKPLSRRKLLQS” here?
A: not soluble

Q: Which “soluble on expression in E. coli” value does the source give for “EDHEGRHMMAVLPANNKISLSRLNDEFNATFHLVKERMVYRLFTDCEHGAIPPIGSPYHMSTVCDERLANLEHVYLEAGDHETLIKLDRKAFKDLMNDCKYLRFSSEVLH” here?
A: not soluble

Q: Which “soluble on expression in E. coli” value does the source give for “MEEEQLLDYEEEQEEIQDKQPEVGGGDARKTKGTYASIHSSGFRDFLLKPEILRAIGDCGFEHPSEVQHECIPQAILGMDVVCQAKSGMGKTAVFVITTLQQLEPVDGEVSVVCMCHTRELAFQISKEYERFSKYLPGVKVAVFFGGMAIKKDEERLANDCPHIVVGTPGRMLALARSGKLKLDKVKYFVLDECDKMIGDADMRRDVQEIVKMTPQQKQVMMFSATLPKELRTVCKRFMQDPMEVYVDDEAKLTLHGLQQHYVKLKEAEKNRRLLNLLDALEFNQVVIFVKAVKRCEALHQLLTEQNFPSIAIHRQMAQEERLSRYQAFKDFQKRILVATDLFGRGMDIERVNIVFNYDMPEDSDSYLHRVARAGRFGTKGLAITFVSDENDAKTLNSVQDRFDISITELPEKIDVSTYIEGRTN” here?
A: not soluble

Q: Which “soluble on expression in E. coli” value does the source give for “MPGAMHDEPDHPELSITVPTLNEAEGLERFFAMLSAQQGVRFELVIADGGSTDGTPESARRLAAATPFAATVIETGRGRGRQMNAGAAAAAGDTLLFLHADCAFPDPLALRTALDAFTQTVAAGGSHRVAGHFRLRFERTDSAPSLPYYFYEWKARLHRPGCTHGDQGLLLGRRFFAEAGPFDESFPILEDVGLAERIAALGEWLLLPAEIVTSARRFEAEGLRERQTLNALLMNFAAMGWDPFLAELPRLYQSQDRAGRLLLGPVLRLIARLLRPLPRRERGRLWRETGRYVRANAWQIPFFLDVRRHFRQGTPVGEGETPRLDLHDRIFDRLTENGAGHRATALLVWIWFRLSLLREPLTPPAARNPEGNGSLEHHHHHH” here?
A: soluble

Q: With “MGSDKIHHHHHHMSQPVWPNFYIIGAVKSGTTSLYAYLRQHPQVFLPAMKEPHFFTQPHPSPEQRHWIQYVGNVEQYQQLYRGAERFPRIGDASPSYLWCEEAPERIHAVQPDARIIVILRDPVQRAHAQYLMDFNEGVLDLPFVEALQRDWTRPDKGWGISQLYVELGRYTAQIMRYQQQFGAGQVHVCLLEDLKKNPLAVLEDIADFLEIDRGPLHDMDLETVHNVHRLPRGNWARQLASGHISRYIGEHLFPRTWGEFVWRNVFLREGRKPPMDAEARSFLQAIYTPEIERLEQLLGRPLPELRISWKFSEPAGQSLSTALPPKPSGNR” as the sequence, how does the “soluble on expression in E. coli” value read?
A: not soluble

Q: With “MHDRASQMVIFYALAKAGSFTAAAKQMGVSTSHVSKQLGALEETLNLKLVHRTTRSLILTDAGQQFFLYCETIYNAMTEASAIMDDERDEVAGILRLGLSQSFGTMHIIPAIDKLRNQYPDLQVEVRLFDHQADMLKDGLDLWVTNFEDLPEGYVAQRLADSNFVLAASPDYLIDKKVPHHPLDLVEHNCLTYQSRYRDYSNWDFSKGNESLCVKVSGNYRVDLAEAVRDATISGWGIAYLASYLLTNEFNDGKLIQLLPGWKASQKMPIYAVYPSRKHLPRKISAVIDFLREHIGQPPYWDKALMKRVKL” as the sequence, how does the “soluble on expression in E. coli” value read?
A: soluble
